Measurements taken from the supplement of paper PMC7125110.
± gives the standard error. For part of these data: Variants at the floor of the assay were thinned out.

B1: glmS ribozyme (parent)
chain: AUAAAAGCGCCAGAACUACAGAAAUGUAGUUGACGAGGAGGAGGUUUAUCGAAUUUUCGGCGGAUGCCUCCAAA

How the values were obtained:
Settings in all cases: with glucosamine-6-phosphate
[1] = variants of: B1; assay: kcat; higher = faster cleavage; RNA array
Outline: (§1)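 Barcoded glmS ribozyme variants on sequenced MiSeq chips were transcribed in situ by E. coli RNA polymerase and tracked through a hybridised Cy3 probe at 37 °C. Glucosamine-6-phosphate (40 μM to 10 mM) in HEPES/KCl/Mg(OAc)2 buffer was flowed in, and tiles were imaged over ~14 h. Signals were normalised to baseline and to non-cleaving reference variants; per-tile medians were fit to one- or two-exponential decays to give kobs. kcat and KM came from weighted Michaelis–Menten fits across concentrations.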

[2] = variants of: B1; assay: KM; higher = weaker cofactor use; RNA array
Outline: as §1

[3] = variants of: B1; assay: self-cleavage kobs at 160 uM GlcN6P; higher = faster cleavage; RNA array
Outline: as §1

[4] = variants of: B1; assay: self-cleavage kobs at 640 uM GlcN6P; higher = faster cleavage; RNA array
Outline: as §1

[5] = variants of: B1; assay: self-cleavage kobs at 2500 uM GlcN6P; higher = faster cleavage; RNA array
Outline: as §1

[6] = variants of: B1; assay: self-cleavage kobs at 10000 uM GlcN6P; higher = faster cleavage; RNA array
Outline: as §1

[7] = variants of: B1; assay: self-cleavage kobs at 40 uM GlcN6P; higher = faster cleavage; RNA array
Outline: as §1

Row | Variant | kcat [1] | KM [2] | self-cleavage kobs at 160 uM GlcN6P [3] | self-cleavage kobs at 640 uM GlcN6P [4] | self-cleavage kobs at 2500 uM GlcN6P [5] | self-cleavage kobs at 10000 uM GlcN6P [6] | self-cleavage kobs at 40 uM GlcN6P [7]
1 | A52G C68A C70U | 1.69e-05 ± 3.4e-06 s⁻¹ | – | – | – | – | – | –
2 | U31G C67G | 0.000557 ± 2.6e-05 s⁻¹ | 1760 ± 150 µM | 4.63e-05 ± 8.1e-06 s⁻¹ | 0.00015 ± 1.7e-05 s⁻¹ | 0.000303 ± 5.8e-05 s⁻¹ | 0.00048 ± 4.6e-05 s⁻¹ | –
3 | A14C U30G | 0.00408 ± 0.001 s⁻¹ | 5380 ± 1800 µM | 0.000107 ± 2e-05 s⁻¹ | 0.000417 ± 7.1e-05 s⁻¹ | 0.00127 ± 0.00034 s⁻¹ | 0.00267 ± 0.00036 s⁻¹ | 5.32e-05 ± 1.3e-05 s⁻¹
4 | A36C | < 1e-05 s⁻¹ | – | < 1e-05 s⁻¹ | – | – | – | –
5 | G40A A53C | 0.00179 ± 0.0007 s⁻¹ | – | 0.000183 ± 5.8e-05 s⁻¹ | 0.000386 ± 0.00011 s⁻¹ | 0.000919 ± 0.0002 s⁻¹ | 0.00217 ± 0.0008 s⁻¹ | –
6 | U30A A52G | 0.00117 ± 0.00025 s⁻¹ | 5730 ± 1500 µM | 4.07e-05 ± 1.7e-05 s⁻¹ | 0.000114 ± 1.2e-05 s⁻¹ | 0.00054 ± 0.00022 s⁻¹ | 0.000737 ± 0.00012 s⁻¹ | –
7 | C10G A15G | 1.16e-05 ± 4e-06 s⁻¹ | – | – | – | – | – | –
8 | C10A U57A | < 1e-05 s⁻¹ | – | – | < 1e-05 s⁻¹ | – | – | –
9 | U31C C68U | 0.000617 ± 9.3e-05 s⁻¹ | 1690 ± 450 µM | 5.34e-05 ± 8.6e-06 s⁻¹ | 0.000175 ± 1.2e-05 s⁻¹ | 0.000321 ± 2.9e-05 s⁻¹ | 0.000583 ± 4.8e-05 s⁻¹ | 3.14e-05 ± 9.7e-06 s⁻¹
10 | U47G A52C | 1.4e-05 ± 1.8e-06 s⁻¹ | – | – | – | – | – | –
11 | C50U C71A | 2.1e-05 ± 3.7e-06 s⁻¹ | – | – | 2.36e-05 ± 1.1e-05 s⁻¹ | 2.3e-05 ± 8.6e-06 s⁻¹ | – | –
12 | C50U G66U C70G | 4.59e-05 ± 1.9e-05 s⁻¹ | – | – | – | – | – | –
13 | A39G A53G C67G | 0.00302 ± 0.001 s⁻¹ | – | 0.000647 ± 0.00024 s⁻¹ | 0.00135 ± 0.00029 s⁻¹ | 0.00536 ± 0.0012 s⁻¹ | 0.00257 ± 0.00072 s⁻¹ | 0.000234 ± 7.2e-05 s⁻¹
14 | U49G | 0.00147 ± 0.00022 s⁻¹ | 2840 ± 550 µM | 7.59e-05 ± 2.5e-06 s⁻¹ | 0.000258 ± 7.3e-06 s⁻¹ | 0.000807 ± 4.3e-05 s⁻¹ | 0.00113 ± 4.5e-05 s⁻¹ | 2.57e-05 ± 1.3e-06 s⁻¹
15 | C34U C58A | < 1e-05 s⁻¹ | – | – | < 1e-05 s⁻¹ | < 1e-05 s⁻¹ | – | < 1e-05 s⁻¹
16 | A39U C61U | < 1e-05 s⁻¹ | – | – | – | – | – | –
17 | A39C U45G | 0.00234 ± 0.00083 s⁻¹ | 2340 ± 1100 µM | 0.000127 ± 1.4e-05 s⁻¹ | 0.000759 ± 0.0001 s⁻¹ | 0.00114 ± 0.00018 s⁻¹ | 0.00189 ± 0.00029 s⁻¹ | 6.34e-05 ± 1.1e-05 s⁻¹
18 | G44C U55C | 3.25e-05 ± 2.5e-06 s⁻¹ | – | – | 2.79e-05 ± 1.3e-05 s⁻¹ | – | – | –

Row | Variant | kcat [1] | KM [2] | self-cleavage kobs at 160 uM GlcN6P [3] | self-cleavage kobs at 640 uM GlcN6P [4] | self-cleavage kobs at 2500 uM GlcN6P [5] | self-cleavage kobs at 10000 uM GlcN6P [6] | self-cleavage kobs at 40 uM GlcN6P [7]
19 | U54A C61U | 3.19e-05 ± 4.4e-07 s⁻¹ | 1620 ± 86 µM | – | – | – | 2.74e-05 ± 1e-05 s⁻¹ | < 1e-05 s⁻¹
20 | G32U G66A | 0.000468 ± 5.1e-05 s⁻¹ | 3020 ± 560 µM | – | 8.47e-05 ± 1e-05 s⁻¹ | 0.00021 ± 2.9e-05 s⁻¹ | 0.000358 ± 4.3e-05 s⁻¹ | –
21 | C11U C67U | 0.000394 ± 2.4e-05 s⁻¹ | 925 ± 130 µM | 5.21e-05 ± 1e-05 s⁻¹ | 0.000171 ± 1.8e-05 s⁻¹ | 0.000278 ± 3e-05 s⁻¹ | 0.000364 ± 3.9e-05 s⁻¹ | –
22 | G37A U46C | 0.0015 ± 0.00029 s⁻¹ | 4230 ± 1100 µM | 5.92e-05 ± 9.2e-06 s⁻¹ | 0.000204 ± 3e-05 s⁻¹ | 0.00046 ± 8e-05 s⁻¹ | 0.00117 ± 0.00017 s⁻¹ | –
23 | A15C C16A | 0.00213 ± 0.00077 s⁻¹ | – | 0.000139 ± 3e-05 s⁻¹ | 0.000522 ± 8e-05 s⁻¹ | 0.000888 ± 0.00013 s⁻¹ | 0.00248 ± 0.00031 s⁻¹ | 5.77e-05 ± 8.7e-06 s⁻¹
24 | A12G U31G | 0.000573 ± 0.00012 s⁻¹ | 4660 ± 1500 µM | – | 6.61e-05 ± 8.2e-06 s⁻¹ | 0.000254 ± 3.4e-05 s⁻¹ | 0.000374 ± 3.9e-05 s⁻¹ | –
25 | A6G C11U | 2.61e-05 ± 3.3e-06 s⁻¹ | – | < 1e-05 s⁻¹ | – | 2.57e-05 ± 1.2e-05 s⁻¹ | 2.38e-05 ± 7.5e-06 s⁻¹ | < 1e-05 s⁻¹
26 | U47G C58G | 0.000117 ± 5.4e-05 s⁻¹ | – | – | 5.51e-05 ± 2.1e-05 s⁻¹ | 3.21e-05 ± 1.3e-05 s⁻¹ | 8.31e-05 ± 1.2e-05 s⁻¹ | –
27 | A6C A12U | 0.000292 ± 1.8e-05 s⁻¹ | 2560 ± 310 µM | – | 5.62e-05 ± 7.4e-06 s⁻¹ | 0.000157 ± 1.8e-05 s⁻¹ | 0.000227 ± 2.1e-05 s⁻¹ | –
28 | A39C U47C | 0.00157 ± 0.00025 s⁻¹ | 2020 ± 510 µM | 0.000105 ± 1.6e-05 s⁻¹ | 0.000327 ± 3.9e-05 s⁻¹ | 0.000934 ± 0.00011 s⁻¹ | 0.00131 ± 0.00011 s⁻¹ | 4.25e-05 ± 5.6e-06 s⁻¹
29 | C11U U54G | 0.00114 ± 0.00053 s⁻¹ | – | 0.000153 ± 2.1e-05 s⁻¹ | 0.000277 ± 3.9e-05 s⁻¹ | 0.000642 ± 9.5e-05 s⁻¹ | 0.00164 ± 0.00025 s⁻¹ | 5.3e-05 ± 1.1e-05 s⁻¹
30 | G40A G41C A53G | 0.000315 ± 0.00011 s⁻¹ | 3110 ± 1500 µM | – | 5.58e-05 ± 1.2e-05 s⁻¹ | 0.000139 ± 3.1e-05 s⁻¹ | – | –
31 | G41C U46C | 3.31e-05 ± 3.8e-06 s⁻¹ | 2440 ± 1200 µM | < 1e-05 s⁻¹ | – | – | 2.65e-05 ± 9.7e-06 s⁻¹ | < 1e-05 s⁻¹
32 | U31C U56C | 0.00169 ± 0.00055 s⁻¹ | 2910 ± 1200 µM | 9.03e-05 ± 1.1e-05 s⁻¹ | 0.000331 ± 5.8e-05 s⁻¹ | 0.000644 ± 0.00011 s⁻¹ | 0.00171 ± 0.00034 s⁻¹ | –
33 | C16G C68A | 2.15e-05 ± 6.1e-06 s⁻¹ | – | – | – | – | – | –
34 | A14U C61A C70A | 1.21e-05 ± 3.3e-06 s⁻¹ | – | – | – | – | – | –
35 | A42C U56C | < 1e-05 s⁻¹ | – | – | – | – | – | < 1e-05 s⁻¹
